This assay relates to Fusarium graminearum (Strain IFA 65). In kind it is cell-based.

B1: LserFCP1-77: 77-residue polypeptide of SEQ ID No. 1 (Lucilia sericata), prepared by solid-phase synthesis or recombinantly in E. coli (protein, listed as Lucilia sericata)
chain: QHGYGAGGHGQQGYGSQHSSHAPQGGHVVREQGFSGHVHEQQAGHHHEAGHHEQAGHHEQSGQQVHGQGHGYKSHGY
Consider B1, for which, under “Fusarium graminearum spores, 24 h at room temperature, from dose-effect relationship (FIG. 8), read-out: concentration in which a half-maximum inhibition (of spore germination) occurred”, the IC50 is 1600 nM.

B2: LserFCP1-73: 73-residue polypeptide of SEQ ID No. 2; LserFCP1-77 lacking the last four residues, made recombinantly in E. coli (protein, listed as Lucilia sericata)
chain: QHGYGAGGHGQQGYGSQHSSHAPQGGHVVREQGFSGHVHEQQAGHHHEAGHHEQAGHHEQSGQQVHGQGHGYK
As to B2, the “inhibition of spore germination” value (100 μM, compared to a water control (FIG. 9)) is listed as “complete inhibition”.

(Values after US10266842B2 (priority 2013, dated 2019).)
